Measurements taken from US20230242666A1.

Molecular target: chondroitin sulfate proteoglycan 4 (CSPG4) (human) (UniProt Q6UVK1)
Test: cell-based or functional assay

UniProt Q6UVK1, sequence (Q6UVK1 30-2322): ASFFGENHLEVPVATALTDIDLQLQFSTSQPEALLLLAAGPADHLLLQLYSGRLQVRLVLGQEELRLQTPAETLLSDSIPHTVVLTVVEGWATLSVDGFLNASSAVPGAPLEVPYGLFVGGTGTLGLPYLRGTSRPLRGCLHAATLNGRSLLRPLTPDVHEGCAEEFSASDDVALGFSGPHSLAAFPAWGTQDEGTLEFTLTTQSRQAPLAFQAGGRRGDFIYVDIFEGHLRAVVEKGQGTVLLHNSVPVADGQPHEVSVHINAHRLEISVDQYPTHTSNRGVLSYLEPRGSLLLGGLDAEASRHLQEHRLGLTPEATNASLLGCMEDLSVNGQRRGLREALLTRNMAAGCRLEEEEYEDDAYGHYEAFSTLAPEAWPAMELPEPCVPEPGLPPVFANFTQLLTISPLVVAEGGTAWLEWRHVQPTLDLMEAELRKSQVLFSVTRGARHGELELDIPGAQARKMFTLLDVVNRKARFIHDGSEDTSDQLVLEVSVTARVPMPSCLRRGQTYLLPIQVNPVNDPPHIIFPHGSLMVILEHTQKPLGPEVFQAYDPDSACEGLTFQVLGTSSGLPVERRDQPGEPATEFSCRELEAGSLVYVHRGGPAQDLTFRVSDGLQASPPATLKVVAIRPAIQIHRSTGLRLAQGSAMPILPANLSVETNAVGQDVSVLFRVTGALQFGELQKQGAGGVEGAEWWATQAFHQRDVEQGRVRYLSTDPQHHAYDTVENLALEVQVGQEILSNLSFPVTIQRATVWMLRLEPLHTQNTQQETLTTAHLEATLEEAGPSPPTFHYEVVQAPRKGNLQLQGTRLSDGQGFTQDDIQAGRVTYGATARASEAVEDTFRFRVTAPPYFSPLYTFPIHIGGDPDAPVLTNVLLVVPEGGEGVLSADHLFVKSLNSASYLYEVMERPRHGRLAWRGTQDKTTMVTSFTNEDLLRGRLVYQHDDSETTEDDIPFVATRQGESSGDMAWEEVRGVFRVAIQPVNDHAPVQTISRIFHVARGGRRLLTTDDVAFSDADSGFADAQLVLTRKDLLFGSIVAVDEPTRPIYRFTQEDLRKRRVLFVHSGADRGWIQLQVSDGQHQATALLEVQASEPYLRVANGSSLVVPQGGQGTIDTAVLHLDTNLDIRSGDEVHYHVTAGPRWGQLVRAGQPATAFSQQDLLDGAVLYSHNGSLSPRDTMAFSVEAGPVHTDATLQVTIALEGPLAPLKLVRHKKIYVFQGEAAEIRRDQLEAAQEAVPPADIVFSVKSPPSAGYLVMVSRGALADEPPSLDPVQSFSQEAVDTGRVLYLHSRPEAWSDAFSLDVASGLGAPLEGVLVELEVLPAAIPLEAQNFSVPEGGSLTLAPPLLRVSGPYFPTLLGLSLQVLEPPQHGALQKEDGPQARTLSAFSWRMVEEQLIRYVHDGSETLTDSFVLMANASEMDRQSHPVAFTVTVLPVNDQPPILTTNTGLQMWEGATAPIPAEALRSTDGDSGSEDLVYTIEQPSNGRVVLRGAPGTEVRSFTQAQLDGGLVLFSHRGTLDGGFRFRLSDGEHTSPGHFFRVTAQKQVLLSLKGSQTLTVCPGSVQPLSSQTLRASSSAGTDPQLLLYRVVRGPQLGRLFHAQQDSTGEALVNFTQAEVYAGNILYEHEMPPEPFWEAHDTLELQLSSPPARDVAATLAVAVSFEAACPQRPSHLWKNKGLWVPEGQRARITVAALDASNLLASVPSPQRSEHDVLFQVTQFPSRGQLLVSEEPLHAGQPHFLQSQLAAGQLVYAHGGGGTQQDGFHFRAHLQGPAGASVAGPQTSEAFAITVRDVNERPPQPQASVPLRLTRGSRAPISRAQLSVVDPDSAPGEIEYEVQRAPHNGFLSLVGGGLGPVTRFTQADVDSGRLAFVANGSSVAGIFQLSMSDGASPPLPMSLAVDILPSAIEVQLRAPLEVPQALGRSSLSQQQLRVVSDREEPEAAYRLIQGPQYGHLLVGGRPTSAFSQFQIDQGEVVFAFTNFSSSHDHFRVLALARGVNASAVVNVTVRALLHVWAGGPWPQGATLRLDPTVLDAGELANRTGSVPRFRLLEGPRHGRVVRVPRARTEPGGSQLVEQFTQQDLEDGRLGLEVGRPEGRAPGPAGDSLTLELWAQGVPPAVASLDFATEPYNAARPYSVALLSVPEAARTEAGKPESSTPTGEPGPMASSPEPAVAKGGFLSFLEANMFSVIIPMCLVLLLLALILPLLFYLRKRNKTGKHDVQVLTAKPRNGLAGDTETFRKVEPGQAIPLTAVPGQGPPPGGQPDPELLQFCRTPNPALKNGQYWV

residual tumor cells after coculture of CAR-T cells with CSPG4+ WM115 melanoma cells	residual tumor cells after coculture of CAR-T cells with WM115 (CSPG4+) melanoma cells, E:T 1:5	Binder
10%		h763.74(#5)CD28 CAR (protein, not shown: large carriers) MEIVMTQSPSTLSASVGDRVIITCRASQTIYKNLHWYQQKPGKSPKLLIKYGSDSISGVPSRFSGSGSGTEYTLTISSLQPDDFATYYCLQGYSTPWTFGQGTKLTVLGGGGGSGGGGSGGGGSGGGGSQVQLVESGGGLVQPGGSLRLSCTASGYTFTDYSMHWVRKAPGKGLEWVGWINTATGEPTYADDFKGRFTISLDTSKNTVYLQMNSLRAEDTAVYFCASYYDYWGQGTLVTVSS
11%		h763.74(#2)CD28 CAR (protein, not shown: large carriers) MDIKLTQSPSILSASVGDRVIITCRASQTIYKNLHWYQQKPHRSPRLLIKYGSDSISGIPSRFSGSGSGTEYTLTISSLQPDDFAIYYCLQGYSTPWTFGGGTKLTVLGGGGGSGGGGSGGGGSGGGGSQVQLVESGGGLVQPGGSLRLSCTASGYTFTDYSMHWVRKTPGKGLKWVGWINTATGEPTYADDFKGRFTISLDTSKNTVYLQMNSLRAEDTATYFCFSYYDYWGQGTTVTVSS
	43.6%	763.74(A)4-1BB CAR (protein, not shown: small tags and cut ends) MQVKLKESGPELKKPGETVKISCKASGYTFTDYSMHWVKKTPGKGLKWLGWINTATGEPTYADDFKGRFAISLETSARTVYLQINNLRNEDTATYFCFSYYDYWGQGTTVTVSSGGGGSGGGGSGGGGDIKLSQSPSILSVTPGETVSLSCRASQTIYKNLHWYQQKSHRSPRLLIKYGSDSISGIPSRFTGSGSGTDYTLNINSVKPEDQGIYYCLQGYSTPWTFGGGTKLEIK
	2.2%	763.74(A)CD28 CAR (protein, not shown: small tags and cut ends) MQVKLKESGPELKKPGETVKISCKASGYTFTDYSMHWVKKTPGKGLKWLGWINTATGEPTYADDFKGRFAISLETSARTVYLQINNLRNEDTATYFCFSYYDYWGQGTTVTVSSGGGGSGGGGSGGGGDIKLSQSPSILSVTPGETVSLSCRASQTIYKNLHWYQQKSHRSPRLLIKYGSDSISGIPSRFTGSGSGTDYTLNINSVKPEDQGIYYCLQGYSTPWTFGGGTKLEIK
